Laboratory results reported in paper doi:10.1101/708180.

Columns and labels:
[1] = target: cHSP27, isolated α-crystallin domain of HSP27 (residues 84-171), oxidized disulfide-linked dimer (human) (UniProt P04792); experiment: NMR CPMG relaxation dispersion
[2] = target: cHSP27, isolated α-crystallin domain of HSP27 (residues 84-171), oxidized disulfide-linked dimer (human) (UniProt P04792); experiment: NMR titration
[3] = target: cHSP27, isolated α-crystallin domain of HSP27 (residues 84-171), oxidized disulfide-linked dimer (human) (UniProt P04792); experiment: NMR titration + other: NMR CPMG relaxation dispersion

cHSP27, isolated α-crystallin domain of HSP27 (residues 84-171), oxidized disulfide-linked dimer (human), sequence (P04792 84-171): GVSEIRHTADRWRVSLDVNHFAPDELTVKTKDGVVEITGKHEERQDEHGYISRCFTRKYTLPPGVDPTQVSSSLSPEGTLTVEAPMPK
C-terminal peptide of HSP27 containing the WT IxI/V (IPV) motif, sequence (P04792 whole entry, looked up, tested part not stated): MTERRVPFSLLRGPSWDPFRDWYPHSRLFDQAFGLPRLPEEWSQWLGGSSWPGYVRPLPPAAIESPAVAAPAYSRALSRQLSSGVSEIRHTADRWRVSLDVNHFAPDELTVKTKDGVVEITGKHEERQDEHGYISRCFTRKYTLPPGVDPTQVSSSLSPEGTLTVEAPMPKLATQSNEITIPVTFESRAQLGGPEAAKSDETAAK
C-terminal peptide of HSP27 bearing the P182L mutation (ILV motif), sequence (P04792 whole entry P182L, looked up, tested part not stated): as the sequence (P04792 whole entry, looked up, tested part not stated) above, with P182L counted along it

Row | Substance | Kd [1] | koff [1] | kon [1] | Kd [2] | fold difference of kon (from CSP Kd and CPMG koff) against the WT peptide [3]
1 | C-terminal peptide of HSP27 containing the WT IxI/V (IPV) motif (from UniProt P04792 179-186) | 2510 µM | 759 s⁻¹ | 302000 M⁻¹ s⁻¹ | 125 µM | –
2 | C-terminal peptide of HSP27 bearing the P182L mutation (ILV motif) (from UniProt P04792 179-186) | 10200 µM | 840 s⁻¹ | 82600 M⁻¹ s⁻¹ | 1200 µM | 10 fold
